The test system of data set [1] is HeLa Kyoto. The data set can be described thus: melting temperature (median over replicates), in situ; higher = more thermally stable.
Data set [2] concerns HeLa Kyoto. Put plainly: solubility in G1/S (NP-40 vs SDS abundance) (log2 ratio); higher = more soluble. To be noted: cell cycle stage: G1/S.
The test system of data set [3] is HeLa Kyoto. The data set can be described thus: thermal stability score vs G1/S (z-score of summed log2 fold changes over temperatures); higher = more thermally stable than in G1/S.
For data set [4], the system named is HeLa Kyoto. The data set can be described thus: solubility change mitosis vs G1/S (difference of NP-40 vs SDS log2 ratios) (log2 ratio difference); higher = more soluble in mitosis.
Where [5] appears, read: cell cycle stage: early G1 (4.5 h after nocodazole release).
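Wherever melting temperature (median over replicates), in situ is given: HeLa Kyoto cells synchronized by double thymidine or nocodazole block, proteins quantified by TMT10plex mass spectrometry, three independent biological replicates.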
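Wherever solubility change mitosis vs G1/S (difference of NP-40 vs SDS log2 ratios) is given: synchronized HeLa Kyoto cells (double thymidine block for G1/S, nocodazole release for mitosis), protein amounts in NP-40 versus SDS lysates quantified by mass spectrometry, three biological replicates.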
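Wherever solubility in G1/S (NP-40 vs SDS abundance) is given: HeLa Kyoto cells arrested at G1/S by double thymidine block, proteins quantified by TMT10plex mass spectrometry in mild NP-40 versus SDS extracts, three biological replicates.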
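Wherever thermal stability score vs G1/S (z-score of summed log2 fold changes over temperatures) is given: synchronized HeLa Kyoto cells, proteins quantified by TMT10plex mass spectrometry, three biological replicates, mitosis taken 0.5 h after nocodazole release, G1/S directly after double thymidine block.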

With “MTSRFGKTYSRKGGNGSSKFDEVFSNKRTTLSTKWGETTFMAKLGQKRPNFKPDIQEIPKKPKVEEESTGDPFGFDSDDESLPVSSKNLAQVKCSSYSESSEAAQLEEVTSVLEANSKISHVVVEDTVVSDKCFPLEDTLLGKEKSTNRIVEDDASISSCNKLITSDKVENFHEEHEKNSHHIHKNADDSTKKPNAETTVASEIKETNDTWNSQFGKRPESPSEISPIKGSVRTGLFEWDNDFEDIRSEDCILSLDSDPLLEMKDDDFKNRLENLNEAIEEDIVQSVLRPTNCRTYCRANKTKSSQGASNFDKLMDGTSQALAKANSESSKDGLNQAKKGGVSCGTSFRGTVGRTRDYTVLHPSCLSVCNVTIQDTMERSMDEFTASTPADLGEAGRLRKKADIATSKTTTRFRPSNTKSKKDVKLEFFGFEDHETGGDEGGSGSSNYKIKYFGFDDLSESEDDEDDDCQVERKTSKKRTKTAPSPSLQPPPESNDNSQDSQSGTNNAENLDFTEDLPGVPESVKKPINKQGDKSKENTRKIFSGPKRSPTKAVYNARHWNHPDSEELPGPPVVKPQSVTVRLSSKEPNQKDDGVFKAPAPPSKVIKTVTIPTQPYQDIVTALKCRREDKELYTVVQHVKHFNDVVEFGENQEFTDDIEYLLSGLKSTQPLNTRCLSVISLATKCAMPSFRMHLRAHGMVAMVFKTLDDSQHHQNLSLCTAALMYILSRDRLNMDLDRASLDLMIRLLELEQDASSAKLLNEKDMNKIKEKIRRLCETVHNKHLDLENITTGHLAMETLLSLTSKRAGDWFKEELRLLGGLDHIVDKVKECVDHLSRDEDEEKLVASLWGAERCLRVLESVTVHNPENQSYLIAYKDSQLIVSSAKALQHCEELIQQYNRAEDSICLADSKPLPHQNVTNHVGKAVEDCMRAIIGVLLNLTNDNEWGSTKTGEQDGLIGTALNCVLQVPKYLPQEQRFDIRVLGLGLLINLVEYSARNRHCLVNMETSCSFDSSICSGEGDDSLRIGGQVHAVQALVQLFLERERAAQLAESKTDELIKDAPTTQHDKSGEWQETSGEIQWVSTEKTDGTEEKHKKEEEDEELDLNKALQHAGKHMEDCIVASYTALLLGCLCQESPINVTTVREYLPEGDFSIMTEMLKKFLSFMNLTCAVGTTGQKSISRVIEYLEHC [WAPL]”, the melting temperature was 48.1 °C with HeLa Kyoto [1] (cell cycle stage: G1/S) and 49.9 °C in the data set on HeLa Kyoto [1] (cell cycle stage: mitosis). For the same sequence, the “solubility in G1/S (log2)” value in the data set with HeLa Kyoto [2] is -0.00224. Further, the thermal stability score in the data set with HeLa Kyoto [3] (setting [5]) was determined as 0.873; in the data set with HeLa Kyoto [3] (cell cycle stage: mitosis), 2.77. For the same sequence, the “solubility change mitosis (log2)” value in the data set with HeLa Kyoto [4] is -0.133.

Consider “MTSSRLWFSLLLAAAFAGRATALWPWPQNFQTSDQRYVLYPNNFQFQYDVSSAAQPGCSVLDEAFQRYRDLLFGSGSWPRPYLTGKRHTLEKNVLVVSVVTPGCNQLPTLESVENYTLTINDDQCLLLSETVWGALRGLETFSQLVWKSAEGTFFINKTEIEDFPRFPHRGLLLDTSRHYLPLSSILDTLDVMAYNKLNVFHWHLVDDPSFPYESFTFPELMRKGSYNPVTHIYTAQDVKEVIEYARLRGIRVLAEFDTPGHTLSWGPGIPGLLTPCYSGSEPSGTFGPVNPSLNNTYEFMSTFFLEVSSVFPDFYLHLGGDEVDFTCWKSNPEIQDFMRKKGFGEDFKQLESFYIQTLLDIVSSYGKGYVVWQEVFDNKVKIQPDTIIQVWREDIPVNYMKELELVTKAGFRALLSAPWYLNRISYGPDWKDFYIVEPLAFEGTPEQKALVIGGEACMWGEYVDNTNLVPRLWPRAGAVAERLWSNKLTSDLTFAYERLSHFRCELLRRGVQAQPLNVGFCEQEFEQT [HEXA]”, for which the melting temperature with HeLa Kyoto [1] (cell cycle stage: G1/S) came to 56.7 °C; in the data set on HeLa Kyoto [1] (cell cycle stage: mitosis) it was 56.1 °C. In the data set with HeLa Kyoto [2], the “solubility in G1/S (log2)” value stood at 0.295. Moreover, the figures for the thermal stability score in the data set with HeLa Kyoto [3] (setting [5]) and with HeLa Kyoto [3] (cell cycle stage: mitosis) were 0.922 and 0.624, respectively. The “solubility change mitosis (log2)” value with HeLa Kyoto [4] was -0.164.

These data come from the supplement of paper PMC5998384.
